pKd: −log10 of the molar value.
Legend:
Test in all cases: MST
Details in all cases: 50 nM RED-NHS labeled PdtaR, RNA up to 10 uM, autophosphorylation buffer (composition and pH not in material) with 0.025% Tween-20, 50 uM ATP …
[1] = system: PdtaR (unphosphorylated) (Mycobacterium tuberculosis Erdman (ATCC 35801))
[2] = system: PdtaR~P (phosphorylated by PdtaS) (Mycobacterium tuberculosis Erdman (ATCC 35801))
[3] = target: T1, PdtaR (unphosphorylated) (Mycobacterium tuberculosis Erdman (ATCC 35801)) (UniProt P9WGM3)
T1 sequence: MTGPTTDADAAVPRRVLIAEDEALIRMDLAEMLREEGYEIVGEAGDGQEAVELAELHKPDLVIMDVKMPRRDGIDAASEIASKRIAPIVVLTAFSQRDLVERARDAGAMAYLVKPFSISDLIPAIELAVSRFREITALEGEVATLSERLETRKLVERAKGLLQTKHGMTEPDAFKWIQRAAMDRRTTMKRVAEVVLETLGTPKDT

Substance	pKd [1]	pKd [2]	pKd [3]
rv3864 RNA	5.59	5.67	
GGCAAAAAAUUCGUGCACCAACCCCCCUCCGAGCGCUGCUAAGCUCAAUGUGCAGUGCAAAGGUGCAGAUAAUGAUGGCGCACCGGAACGGCGAGCGUAAGGAAA [rv3864 RNA]			5.59
PPE1-5' RNA	5.89	6.39	

Source: PMC8131098
